Experimental data reported in the supplement of paper PMC10065799, “High-throughput profiling of sequence recognition by tyrosine kinases and SH2 domains using bacterial peptide display” (eLife, 2023).

Experiments:
c-Src SH2 = assay: SH2 binding enrichment of the phosphorylated peptide, bacterial display (enrichment ratio); higher = better substrate or ligand; peptides without Tyr show the background
SHP2-C SH2 = assay: as above
Grb2 SH2 = Grb2 SH2 (UniProt P62993); assay: as above
EPHB2 = EPHB2 (UniProt P29323); assay: phosphorylation enrichment, bacterial display (enrichment ratio); higher = better substrate or ligand; peptides without Tyr show the background
Sequence of EPHB2 (P29323 whole entry, looked up): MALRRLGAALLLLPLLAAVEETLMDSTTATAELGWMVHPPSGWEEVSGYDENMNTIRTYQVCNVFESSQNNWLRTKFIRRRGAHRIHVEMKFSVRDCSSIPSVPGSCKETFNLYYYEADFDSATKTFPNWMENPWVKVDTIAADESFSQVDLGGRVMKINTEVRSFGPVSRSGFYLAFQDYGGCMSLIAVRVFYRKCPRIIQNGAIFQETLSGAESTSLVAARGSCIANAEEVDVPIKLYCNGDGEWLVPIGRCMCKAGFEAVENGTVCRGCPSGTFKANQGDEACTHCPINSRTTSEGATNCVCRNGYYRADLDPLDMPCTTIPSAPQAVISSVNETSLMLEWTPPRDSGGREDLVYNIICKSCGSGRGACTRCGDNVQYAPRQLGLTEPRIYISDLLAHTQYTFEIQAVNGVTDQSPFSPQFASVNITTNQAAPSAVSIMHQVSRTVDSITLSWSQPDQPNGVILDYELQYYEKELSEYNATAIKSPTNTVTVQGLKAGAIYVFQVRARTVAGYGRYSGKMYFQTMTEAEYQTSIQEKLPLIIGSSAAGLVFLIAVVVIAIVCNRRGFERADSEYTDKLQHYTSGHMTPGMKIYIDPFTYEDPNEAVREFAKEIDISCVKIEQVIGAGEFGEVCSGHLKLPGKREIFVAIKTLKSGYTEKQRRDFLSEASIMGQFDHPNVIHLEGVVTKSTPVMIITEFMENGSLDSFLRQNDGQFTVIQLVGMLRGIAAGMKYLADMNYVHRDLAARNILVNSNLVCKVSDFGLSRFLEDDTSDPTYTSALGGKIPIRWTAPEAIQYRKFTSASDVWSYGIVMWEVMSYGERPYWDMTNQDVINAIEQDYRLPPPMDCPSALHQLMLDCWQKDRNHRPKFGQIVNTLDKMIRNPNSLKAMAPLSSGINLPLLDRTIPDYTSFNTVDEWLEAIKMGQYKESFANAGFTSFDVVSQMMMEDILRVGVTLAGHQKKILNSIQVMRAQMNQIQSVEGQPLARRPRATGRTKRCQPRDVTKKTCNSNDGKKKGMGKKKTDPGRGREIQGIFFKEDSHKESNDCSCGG

c-Src = assay: as above
Fyn = Fyn (UniProt P06241); assay: as above
Sequence of Fyn (P06241 whole entry, looked up): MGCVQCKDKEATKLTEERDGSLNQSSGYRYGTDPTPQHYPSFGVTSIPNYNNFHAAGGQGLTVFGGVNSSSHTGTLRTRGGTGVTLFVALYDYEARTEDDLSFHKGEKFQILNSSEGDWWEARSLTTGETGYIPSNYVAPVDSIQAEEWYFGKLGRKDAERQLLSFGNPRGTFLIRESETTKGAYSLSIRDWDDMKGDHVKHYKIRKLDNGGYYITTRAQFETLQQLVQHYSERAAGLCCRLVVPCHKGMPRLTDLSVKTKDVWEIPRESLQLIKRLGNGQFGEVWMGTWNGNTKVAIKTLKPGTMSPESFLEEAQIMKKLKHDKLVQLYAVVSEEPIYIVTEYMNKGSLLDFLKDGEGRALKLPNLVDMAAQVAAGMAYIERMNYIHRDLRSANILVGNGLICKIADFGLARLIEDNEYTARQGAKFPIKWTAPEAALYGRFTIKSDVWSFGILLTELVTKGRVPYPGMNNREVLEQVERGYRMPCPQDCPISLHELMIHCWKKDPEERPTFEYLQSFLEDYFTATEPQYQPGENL

Fer (mouse) = assay: as above
EPHB1 = EPHB1 (UniProt P54762); assay: as above
Sequence of EPHB1 (P54762 whole entry, looked up): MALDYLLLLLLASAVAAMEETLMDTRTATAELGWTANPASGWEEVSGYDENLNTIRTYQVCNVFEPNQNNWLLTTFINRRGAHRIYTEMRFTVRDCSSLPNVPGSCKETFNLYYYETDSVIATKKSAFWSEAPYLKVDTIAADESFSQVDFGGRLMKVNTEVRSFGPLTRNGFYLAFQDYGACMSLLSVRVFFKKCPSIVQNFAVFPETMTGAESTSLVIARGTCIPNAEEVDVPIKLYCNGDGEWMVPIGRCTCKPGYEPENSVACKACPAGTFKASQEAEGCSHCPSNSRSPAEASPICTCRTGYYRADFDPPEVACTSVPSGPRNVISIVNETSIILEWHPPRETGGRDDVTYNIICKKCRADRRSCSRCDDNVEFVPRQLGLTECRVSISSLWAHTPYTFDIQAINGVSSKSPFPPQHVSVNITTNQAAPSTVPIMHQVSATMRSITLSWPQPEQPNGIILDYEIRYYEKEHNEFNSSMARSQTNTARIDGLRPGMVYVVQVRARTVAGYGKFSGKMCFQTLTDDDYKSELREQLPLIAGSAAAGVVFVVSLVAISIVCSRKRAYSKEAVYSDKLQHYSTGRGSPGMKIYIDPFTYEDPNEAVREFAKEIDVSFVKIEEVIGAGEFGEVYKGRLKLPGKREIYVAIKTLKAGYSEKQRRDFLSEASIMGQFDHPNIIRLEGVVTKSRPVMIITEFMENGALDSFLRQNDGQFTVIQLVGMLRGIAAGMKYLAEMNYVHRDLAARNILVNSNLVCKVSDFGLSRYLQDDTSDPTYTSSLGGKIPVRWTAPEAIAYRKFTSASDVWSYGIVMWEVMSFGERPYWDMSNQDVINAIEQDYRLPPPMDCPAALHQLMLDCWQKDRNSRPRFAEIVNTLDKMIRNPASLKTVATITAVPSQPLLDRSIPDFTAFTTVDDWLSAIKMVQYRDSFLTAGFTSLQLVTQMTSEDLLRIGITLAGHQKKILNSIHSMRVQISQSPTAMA

Fes = Fes (UniProt P07332); assay: as above
AncSZ = assay: as above
MERTK = MERTK (UniProt Q12866); assay: as above
FGFR1 = FGFR1 (UniProt P11362); assay: as above
Sequence of FGFR1 (P11362 whole entry, looked up): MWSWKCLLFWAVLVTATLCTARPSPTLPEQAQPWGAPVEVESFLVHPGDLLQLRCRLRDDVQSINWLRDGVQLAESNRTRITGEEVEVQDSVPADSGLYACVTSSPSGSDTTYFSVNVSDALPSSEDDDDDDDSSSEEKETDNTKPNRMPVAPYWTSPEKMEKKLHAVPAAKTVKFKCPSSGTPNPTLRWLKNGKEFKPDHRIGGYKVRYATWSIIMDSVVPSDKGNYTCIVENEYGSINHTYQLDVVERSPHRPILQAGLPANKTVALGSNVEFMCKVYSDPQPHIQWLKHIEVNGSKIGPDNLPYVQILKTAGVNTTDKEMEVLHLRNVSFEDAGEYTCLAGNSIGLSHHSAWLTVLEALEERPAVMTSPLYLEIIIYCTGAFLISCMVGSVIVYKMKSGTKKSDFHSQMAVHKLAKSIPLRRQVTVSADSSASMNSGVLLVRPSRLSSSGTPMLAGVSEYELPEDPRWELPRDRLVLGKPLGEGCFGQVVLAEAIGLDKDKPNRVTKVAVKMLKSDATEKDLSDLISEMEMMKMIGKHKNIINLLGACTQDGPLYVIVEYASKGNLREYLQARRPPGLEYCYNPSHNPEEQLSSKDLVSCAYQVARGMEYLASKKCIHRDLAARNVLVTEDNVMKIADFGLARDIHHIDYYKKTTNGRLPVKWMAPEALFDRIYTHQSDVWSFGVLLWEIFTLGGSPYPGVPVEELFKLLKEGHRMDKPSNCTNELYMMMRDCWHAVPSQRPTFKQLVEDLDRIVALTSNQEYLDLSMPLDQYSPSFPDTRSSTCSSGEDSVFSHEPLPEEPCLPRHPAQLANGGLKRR

Hck = Hck (UniProt P08631); assay: as above
Sequence of Hck (P08631 whole entry, looked up): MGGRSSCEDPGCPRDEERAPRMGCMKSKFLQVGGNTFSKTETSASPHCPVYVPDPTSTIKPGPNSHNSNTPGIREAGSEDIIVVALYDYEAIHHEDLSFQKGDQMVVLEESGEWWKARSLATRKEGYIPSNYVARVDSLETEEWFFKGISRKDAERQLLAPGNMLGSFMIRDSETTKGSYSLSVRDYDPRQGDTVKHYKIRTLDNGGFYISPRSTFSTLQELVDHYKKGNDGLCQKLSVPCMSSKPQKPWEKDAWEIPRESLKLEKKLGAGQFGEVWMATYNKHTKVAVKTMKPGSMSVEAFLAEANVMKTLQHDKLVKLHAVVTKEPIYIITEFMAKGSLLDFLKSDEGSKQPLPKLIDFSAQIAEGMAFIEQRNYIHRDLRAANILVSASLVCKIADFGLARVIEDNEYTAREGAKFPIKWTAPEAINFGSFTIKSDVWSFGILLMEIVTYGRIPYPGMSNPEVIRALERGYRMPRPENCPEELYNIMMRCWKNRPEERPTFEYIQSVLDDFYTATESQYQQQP

Jak2 = Jak2 (UniProt O60674); assay: as above
c-Abl (mouse) = assay: as above
FGFR3 = FGFR3 (UniProt P22607); assay: as above
Sequence of FGFR3 (P22607 whole entry, looked up, the tested form may be a part): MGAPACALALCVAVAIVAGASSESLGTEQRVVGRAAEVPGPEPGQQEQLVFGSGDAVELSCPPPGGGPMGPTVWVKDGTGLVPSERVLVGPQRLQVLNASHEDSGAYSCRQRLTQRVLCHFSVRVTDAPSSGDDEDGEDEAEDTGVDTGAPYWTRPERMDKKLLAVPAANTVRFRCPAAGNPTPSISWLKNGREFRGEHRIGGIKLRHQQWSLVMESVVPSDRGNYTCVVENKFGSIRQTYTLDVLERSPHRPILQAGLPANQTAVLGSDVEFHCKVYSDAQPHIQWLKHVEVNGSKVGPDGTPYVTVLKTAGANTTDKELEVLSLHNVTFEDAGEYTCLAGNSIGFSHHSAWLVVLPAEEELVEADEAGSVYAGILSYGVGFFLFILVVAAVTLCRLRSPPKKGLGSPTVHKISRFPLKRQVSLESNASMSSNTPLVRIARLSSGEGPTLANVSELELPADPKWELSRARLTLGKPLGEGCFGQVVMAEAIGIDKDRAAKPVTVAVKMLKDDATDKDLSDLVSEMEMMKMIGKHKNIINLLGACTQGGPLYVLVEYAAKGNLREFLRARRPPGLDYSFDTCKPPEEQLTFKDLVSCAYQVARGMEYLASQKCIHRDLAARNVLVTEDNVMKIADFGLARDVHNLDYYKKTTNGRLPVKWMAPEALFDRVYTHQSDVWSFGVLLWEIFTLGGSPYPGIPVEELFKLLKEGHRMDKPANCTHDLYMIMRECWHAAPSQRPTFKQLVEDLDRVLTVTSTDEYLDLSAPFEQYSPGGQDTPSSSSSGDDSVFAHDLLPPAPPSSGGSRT
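Wherever SH2 binding enrichment of the phosphorylated peptide, bacterial display is given: peptide library displayed on the E. coli surface as eCPX fusions, selected cells deep-sequenced, score is each peptide's frequency after selection divided by its frequency in the input.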
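Wherever phosphorylation enrichment, bacterial display is given: 11-residue human phosphosite peptides and single-mutation variants displayed on the E. coli surface, counted by deep sequencing, each peptide's frequency after selection divided by its frequency in the unselected input library; frequency after pTyr selection over input frequency; kinase dosed for 20-30% of maximal phosphorylation in three min.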

Sequence of Grb2 SH2 (P62993 whole entry, looked up): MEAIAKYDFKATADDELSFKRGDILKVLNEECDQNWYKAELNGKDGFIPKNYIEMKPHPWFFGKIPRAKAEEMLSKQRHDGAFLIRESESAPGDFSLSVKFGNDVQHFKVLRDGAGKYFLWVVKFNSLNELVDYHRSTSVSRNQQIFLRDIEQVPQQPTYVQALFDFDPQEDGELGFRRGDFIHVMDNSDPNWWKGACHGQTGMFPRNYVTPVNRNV

| Sequence | SH2 binding enrichment (c-Src SH2) | SH2 binding enrichment (SHP2-C SH2) | SH2 binding enrichment (Grb2 SH2) | phosphorylation enrichment (EPHB2) | phosphorylation enrichment (c-Src) | phosphorylation enrichment (Fyn) | phosphorylation enrichment (Fer (mouse)) | phosphorylation enrichment (EPHB1) | phosphorylation enrichment (Fes) | phosphorylation enrichment (AncSZ) | phosphorylation enrichment (MERTK) | phosphorylation enrichment (FGFR1) | phosphorylation enrichment (Hck) | phosphorylation enrichment (Jak2) | phosphorylation enrichment (c-Abl (mouse)) | phosphorylation enrichment (FGFR3) |
| --- | --- | --- | --- | --- | --- | --- | --- | --- | --- | --- | --- | --- | --- | --- | --- | --- |
| KKLHEYNTQFQ [PIK3R1_Y452] | 0.592 | 0.86 | 1 | 0.385 | 0.42 | 0.39 | 0.389 | 0.323 | 0.541 | 0.55 | 0.348 | 0.322 | 0.367 | 0.43 | 0.477 | 0.366 |
| KKRSSYGNSSD [SELENOK_Y52_R50S] | 0.441 | 0.609 | 0.686 | 0.462 | 0.515 | 0.438 | 0.422 | 0.4 | 0.508 | 0.57 | 0.556 | 0.386 | 0.475 | 0.523 | 0.489 | 0.476 |
| KLIETYSSKNF [PLP1_Y50_F51S_YF] | 0.422 | 0.472 | 0.713 | 0.618 | 0.451 | 0.504 | 0.388 | 0.769 | 0.996 | 0.654 | 0.401 | 0.446 | 0.519 | 0.59 | 0.588 | 0.46 |
| KLKEKYQKDIA [HMGB1_Y155_E156Q] | 1.11 | 1.91 | 1.24 | 0.588 | 0.582 | 0.465 | 0.522 | 0.454 | 0.996 | 0.57 | 0.557 | 0.565 | 0.487 | 1.47 | 1.24 | 1.21 |
| KLKNAYEESLE [MYH7_Y1488] | 0.654 | 0.761 | 0.531 | 0.445 | 0.472 | 0.429 | 0.454 | 0.491 | 1.14 | 0.982 | 0.452 | 0.65 | 0.384 | 0.908 | 0.743 | 0.612 |
| KLSFSYGRALQ [ALDOB_Y302] | 0.592 | 0.955 | 1.04 | 0.483 | 0.417 | 0.388 | 0.413 | 0.548 | 0.994 | 0.9 | 0.407 | 0.519 | 0.46 | 0.847 | 0.694 | 0.642 |
| KMGNIYRTEFG [MRPL3_Y265_YF] | 0.485 | 0.652 | 0.672 | 0.34 | 0.532 | 0.536 | 0.393 | 0.337 | 0.5 | 0.535 | 0.477 | 0.482 | 0.488 | 0.448 | 0.471 | 0.514 |
| KNKKDYYDMYE [SLC26A3_Y526] | 1.03 | 0.937 | 0.962 | 0.738 | 0.579 | 0.601 | 0.543 | 1.13 | 0.851 | 1.13 | 0.408 | 6.27 | 0.73 | 0.67 | 0.579 | 4.04 |
| KNNDGYTDYAE [MCFD2_Y135_I136T] | 1.79 | 0.588 | 0.766 | 0.57 | 0.383 | 0.463 | 0.381 | 0.475 | 1 | 0.941 | 0.458 | 0.515 | 0.461 | 0.831 | 0.85 | 0.597 |
| KNNSIYVVANI [VNN1_Y134] | 0.671 | 1.05 | 1.08 | 0.761 | 0.705 | 0.765 | 0.727 | 0.74 | 1.14 | 0.982 | 0.885 | 0.701 | 0.888 | 1.04 | 0.8 | 0.821 |
| KNSFKYYMSDD [ATRX_Y203_C200S] | 0.708 | 0.661 | 0.848 | 0.531 | 0.44 | 0.468 | 0.405 | 0.507 | 1.02 | 0.92 | 0.479 | 0.486 | 0.477 | 0.947 | 0.671 | 0.604 |
| KPLMPCMRYSR [SMARCE1_Y73_Y73C] | 0.485 | 0.558 | 0.808 | 0.535 | 0.444 | 0.458 | 0.452 | 0.404 | 0.791 | 0.821 | 0.538 | 0.407 | 0.517 | 0.756 | 0.781 | 0.476 |
| KRISCYEASFQ [PFKFB3_Y194_YF] | 0.502 | 0.53 | 0.64 | 0.536 | 0.568 | 0.452 | 0.593 | 0.58 | 1.11 | 0.973 | 0.527 | 0.523 | 0.49 | 1.06 | 0.88 | 0.85 |
| KRNSLYSFSDH [CCDC82_Y331_Q327R] | 0.548 | 0.846 | 0.89 | 0.379 | 1.33 | 1.54 | 0.829 | 0.458 | 0.55 | 0.531 | 4.12 | 0.411 | 0.964 | 0.416 | 0.569 | 0.471 |
| KRRGPYEMSPS [PLPP7_Y172_T174M] | 0.456 | 0.344 | 0.532 | 0.371 | 0.45 | 0.387 | 0.345 | 0.323 | 0.452 | 0.58 | 0.402 | 0.338 | 0.445 | 0.459 | 0.508 | 0.377 |
| KSLFHYRQFSA [CPS1_Y1491_YF] | 0.395 | 0.601 | 0.734 | 0.453 | 0.472 | 0.466 | 0.534 | 0.553 | 0.859 | 0.656 | 0.415 | 0.546 | 0.42 | 0.942 | 0.59 | 0.498 |
| KSMFVYCTPNK [ATP2A2_Y497_S495F] | 0.679 | 0.484 | 0.925 | 0.673 | 0.494 | 0.473 | 0.565 | 0.6 | 1.19 | 1.22 | 0.452 | 0.587 | 0.568 | 1.12 | 1.05 | 0.768 |

| Sequence | SH2 binding enrichment (c-Src SH2) | SH2 binding enrichment (SHP2-C SH2) | SH2 binding enrichment (Grb2 SH2) | phosphorylation enrichment (EPHB2) | phosphorylation enrichment (c-Src) | phosphorylation enrichment (Fyn) | phosphorylation enrichment (Fer (mouse)) | phosphorylation enrichment (EPHB1) | phosphorylation enrichment (Fes) | phosphorylation enrichment (AncSZ) | phosphorylation enrichment (MERTK) | phosphorylation enrichment (FGFR1) | phosphorylation enrichment (Hck) | phosphorylation enrichment (Jak2) | phosphorylation enrichment (c-Abl (mouse)) | phosphorylation enrichment (FGFR3) |
| --- | --- | --- | --- | --- | --- | --- | --- | --- | --- | --- | --- | --- | --- | --- | --- | --- |
| KSPGEYVNIEF [IRS1_Y896] | 4.93 | 1.26 | 3.04 | 0.736 | 0.47 | 0.49 | 0.505 | 0.653 | 0.812 | 0.906 | 0.546 | 1.35 | 0.575 | 0.623 | 0.706 | 1.06 |
| KTDVHYRSLGG [DYSF_Y1858] | 0.472 | 0.649 | 0.74 | 0.371 | 0.359 | 0.364 | 0.335 | 0.329 | 0.515 | 0.468 | 0.377 | 0.334 | 0.371 | 0.48 | 0.426 | 0.511 |
| KVKVEYDMTVP [AHNAK_Y964_G962V] | 0.79 | 0.659 | 0.838 | 0.59 | 0.555 | 0.492 | 0.51 | 0.45 | 1.03 | 0.94 | 0.478 | 0.495 | 0.485 | 0.872 | 0.862 | 0.646 |
| KVVNEYVTKGQ [MYH7_Y410_G407V] | 0.369 | 0.798 | 0.857 | 0.451 | 0.433 | 0.36 | 0.393 | 0.358 | 0.601 | 0.806 | 0.375 | 0.431 | 0.402 | 0.53 | 0.513 | 0.489 |
| LAETSYVIVLE [MAGEA1_Y276_K278I] | 0.479 | 0.983 | 0.641 | 0.99 | 1 | 0.791 | 0.734 | 1.06 | 2.35 | 1.8 | 0.616 | 0.688 | 0.727 | 2.19 | 1.54 | 0.997 |
| LANNEYFFRVC | 0.634 | 0.884 | 1.05 | 0.917 | 0.55 | 0.74 | 0.505 | 0.733 | 1.19 | 1.23 | 0.517 | 1.31 | 0.53 | 1.38 | 0.698 | 1.47 |
| LDPIQYSKHPP [SQSTM1_Y433_T430P] | 0.451 | 0.838 | 0.885 | 0.588 | 0.303 | 0.472 | 0.634 | 0.473 | 0.663 | 0.691 | 0.384 | 0.624 | 0.795 | 0.481 | 0.448 | 0.828 |
| LDPMVYMNDTS [PTK2B_Y834_K838T] | 1.05 | 0.668 | 3.37 | 0.734 | 0.811 | 0.588 | 0.787 | 0.494 | 1.11 | 0.958 | 0.7 | 0.64 | 0.728 | 1.48 | 1.32 | 0.708 |
| LDTSQYFRLFN [CPT2_Y217_M214T] | 0.472 | 1.98 | 0.96 | 0.522 | 0.535 | 0.413 | 0.498 | 0.673 | 0.784 | 0.824 | 0.532 | 1.47 | 0.61 | 4.85 | 0.617 | 1.36 |
| LEAFQYIGESQ [MSH2_Y856_E853A] | 0.506 | 0.682 | 0.979 | 0.585 | 0.659 | 0.625 | 0.505 | 0.711 | 1.58 | 1.21 | 0.479 | 0.614 | 0.413 | 1.46 | 0.906 | 0.938 |
| LEAVSYSSPFA [RNLS_Y190_R193P_YF] | 1.26 | 3.49 | 0.911 | 0.908 | 0.652 | 0.791 | 0.396 | 0.736 | 1.06 | 1.23 | 0.658 | 1.12 | 0.615 | 0.952 | 2.62 | 0.661 |
| LEDEVCAQKMK [TPM2_Y261_Y261C] | 0.967 | 1.38 | 1.02 | 0.963 | 0.573 | 1.01 | 1.01 | 1.07 | 2.03 | 1.6 | 0.848 | 0.79 | 0.832 | 1.44 | 1.2 | 1.16 |
| LEDPMYDIIRD [RP9_Y142_H137L] | 1.67 | 0.475 | 0.863 | 6.72 | 7.86 | 7.34 | 6.19 | 4.98 | 2.32 | 3.53 | 7.83 | 1.14 | 7.93 | 2.7 | 4.38 | 1.29 |
| LEEFQYIGESQ [MSH2_Y856] | 0.535 | 0.688 | 0.842 | 1.19 | 0.882 | 0.722 | 0.918 | 1.03 | 1.62 | 2.09 | 0.61 | 0.733 | 0.558 | 2.43 | 1.25 | 1.11 |
| LEKRAYICAHP [ACAD9_Y611] | 0.442 | 0.889 | 0.8 | 0.455 | 0.462 | 0.457 | 0.456 | 0.535 | 0.969 | 0.943 | 0.479 | 0.506 | 0.476 | 0.818 | 0.638 | 0.616 |
| LFCLHYFHRTF [SRD5A2_Y91_V89L] | 1.33 | 1.62 | 1.48 | 0.541 | 0.879 | 1.07 | 0.888 | 0.9 | 1.93 | 1.85 | 0.66 | 0.71 | 0.494 | 1.78 | 1.21 | 1.46 |
